Among the data in patent publication US20160000936A1 (AbbVie / Abbott, published 2016) are IC50 values, retold here.

As a reminder, the IC50 is the concentration needed to halve the response being measured. A low value points to greater potency.

Test [1] concerns the target T1, murine TNF (mouse, UniProt P06804 80-235).
T1 construct: also called mouse TNFα; TNFα
T1 sequence (looked up): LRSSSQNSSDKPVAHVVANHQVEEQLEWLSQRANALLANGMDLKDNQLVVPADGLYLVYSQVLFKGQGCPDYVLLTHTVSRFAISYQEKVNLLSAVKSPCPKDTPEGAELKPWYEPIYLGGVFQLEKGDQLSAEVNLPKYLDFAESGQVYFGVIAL
The experiment in a line: assay not described; table titled 'Source And Binding Information'.

Test [2] concerns the target T2, murine IL-17 (mouse, UniProt Q62386 26-158).
T2 construct: also called mouse IL-17
T2 sequence (looked up): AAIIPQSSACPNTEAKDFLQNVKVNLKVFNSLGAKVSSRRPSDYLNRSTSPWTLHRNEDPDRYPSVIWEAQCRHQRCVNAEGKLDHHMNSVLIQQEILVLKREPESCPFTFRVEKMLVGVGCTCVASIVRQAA
Described as above.

B1: anti-mouse TNF/IL-17 DVD-Ig protein 8C11/10F7M11 (bispecific antibody, human IgG1, kappa, L234A L235A)
heavy: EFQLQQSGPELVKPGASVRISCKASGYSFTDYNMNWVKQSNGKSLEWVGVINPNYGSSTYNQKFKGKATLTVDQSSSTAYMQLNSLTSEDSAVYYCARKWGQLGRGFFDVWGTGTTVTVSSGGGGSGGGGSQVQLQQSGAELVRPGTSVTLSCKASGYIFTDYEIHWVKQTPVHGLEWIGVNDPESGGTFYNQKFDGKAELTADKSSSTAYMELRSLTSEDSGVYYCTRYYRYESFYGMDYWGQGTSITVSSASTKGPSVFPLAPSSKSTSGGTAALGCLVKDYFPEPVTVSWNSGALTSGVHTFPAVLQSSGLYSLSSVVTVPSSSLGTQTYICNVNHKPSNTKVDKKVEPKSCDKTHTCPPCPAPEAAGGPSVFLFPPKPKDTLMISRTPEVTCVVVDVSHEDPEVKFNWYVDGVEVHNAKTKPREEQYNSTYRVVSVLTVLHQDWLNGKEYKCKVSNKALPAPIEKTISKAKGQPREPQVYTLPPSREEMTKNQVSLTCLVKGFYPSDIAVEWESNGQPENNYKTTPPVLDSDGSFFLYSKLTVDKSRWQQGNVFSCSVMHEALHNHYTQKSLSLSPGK
light: QIVLSQSPAILSASPGEKVTMTCRASSSVSYMHWFQQKPGSSPKPWIYATSNLASGVPARFSGSGSGTSYSLTISRVEAEDAATYYCQQWSSSPLTFGAGTKLELKRGGSGGGGSGQIVLTQSPAIMSASPGEKVTMTCSASSSISYIYWFQQKPGTSPKRWIYATFELASGVPARFSGSGSGTSYSLTISSMEAEDAATYYCHQRSSYPWTFGGGSKLEIKRTVAAPSVFIFPPSDEQLKSGTASVVCLLNNFYPREAKVQWKVDNALQSGNSQESVTEQDSKDSTYSLSSTLTLSKADYEKHKVYACEVTHQGLSSPVTKSFNRGEC
notes: The constant regions of the protein actually assayed are therefore uncertain; also called 8C11/10F7-DVD-Ig protein; 8C11/10F7M11 anti-TNF/IL-17 DVD-Ig protein
For B1, the values for the IC50 in test [1] and in test [2] were 2 nM and 0.13 nM, respectively.

B2: anti-murine TNF antibody 8C11 (antibody, mouse IgG2c, V domains shown)
VH: EFQLQQSGPELVKPGASVRISCKASGYSFTDYNMNWVKQSNGKSLEWVGVINPNYGSSTYNQKFKGKATLTVDQSSSTAYMQLNSLTSEDSAVYYCARKWGQLGRGFFDVWGTGTTVTVSS
VL: QIVLSQSPAILSASPGEKVTMTCRASSSVSYMHWFQQKPGSSPKPWIYATSNLASGVPARFSGSGSGTSYSLTISRVEAEDAATYYCQQWSSSPLTFGAGTKLELKR
notes: also called 8C11 anti-TNF antibody; anti-TNFα antibody 8C11
In test [1], B2 had an IC50 of 2 nM.
